From patent US20180127513A1 (Bristol-Myers Squibb, published 2018)

B1: CD73.4-IgG2-C219S (antibody)
heavy: QVQLVESGGGVVQPGRSLRLSCAASGFTFSNYGMHWVRQAPGKGLEWVAVILYDGSNKYYPDSVKGRFTISRDNSKNTLYLQMNSLRAEDTAVYYCARGGSSWYPDSFDIWGQGTMVTVSSASTKGPSVFPLAPCSRSTSESTAALGCLVKDYFPEPVTVSWNSGALTSGVHTFPAVLQSSGLYSLSSVVTVPSSNFGTQTYTCNVDHKPSNTKVDKTVERKSCVECPPCPAPPVAGPSVFLFPPKPKDTLMISRTPEVTCVVVDVSHEDPEVQFNWYVDGVEVHNAKTKPREEQFNSTFRVVSVLTVVHQDWLNGKEYKCKVSNKGLPAPIEKTISKTKGQPREPQVYTLPPSREEMTKNQVSLTCLVKGFYPSDIAVEWESNGQPENNYKTTPPMLDSDGSFFLYSKLTVDKSRWQQGNVFSCSVMHEALHNHYTQKSLSLSPG
light: not shown
notes: also called CD73.4-IgG2CS; CD73.4-IgG2.3; copies: 2 + 2
B2: CD73.10-IgG2-C219S (antibody)
heavy: QVQLVESGGGVVQPGRSLRLSCAASGFTFSNYGMHWVRQAPGKGLEWVAVIWYDESNKYYPDSVKGRFTISRDNSKNTLYLQMNSLRAEDTAVYYCARGGSSWYPDSFDIWGQGTMVTVSSASTKGPSVFPLAPCSRSTSESTAALGCLVKDYFPEPVTVSWNSGALTSGVHTFPAVLQSSGLYSLSSVVTVPSSNFGTQTYTCNVDHKPSNTKVDKTVERKSCVECPPCPAPPVAGPSVFLFPPKPKDTLMISRTPEVTCVVVDVSHEDPEVQFNWYVDGVEVHNAKTKPREEQFNSTFRVVSVLTVVHQDWLNGKEYKCKVSNKGLPAPIEKTISKTKGQPREPQVYTLPPSREEMTKNQVSLTCLVKGFYPSDIAVEWESNGQPENNYKTTPPMLDSDGSFFLYSKLTVDKSRWQQGNVFSCSVMHEALHNHYTQKSLSLSPG
light: not shown
notes: also called CD73.10-IgG2CS; CD73.10-IgG2S
B3: CD73.10-IgG2-C219S-IgG1.1f (antibody)
heavy: QVQLVESGGGVVQPGRSLRLSCAASGFTFSNYGMHWVRQAPGKGLEWVAVIWYDESNKYYPDSVKGRFTISRDNSKNTLYLQMNSLRAEDTAVYYCARGGSSWYPDSFDIWGQGTMVTVSSASTKGPSVFPLAPCSRSTSESTAALGCLVKDYFPEPVTVSWNSGALTSGVHTFPAVLQSSGLYSLSSVVTVPSSNFGTQTYTCNVDHKPSNTKVDKTVERKSCVECPPCPAPPVAGPSVFLFPPKPKDTLMISRTPEVTCVVVDVSHEDPEVKFNWYVDGVEVHNAKTKPREEQYNSTYRVVSVLTVLHQDWLNGKEYKCKVSNKALPSSIEKTISKAKGQPREPQVYTLPPSREEMTKNQVSLTCLVKGFYPSDIAVEWESNGQPENNYKTTPPVLDSDGSFFLYSKLTVDKSRWQQGNVFSCSVMHEALHNHYTQKSLSLSPG
light: not shown
B4: CD73.4-IgG2-C219S-IgG1.1f (antibody)
heavy: QVQLVESGGGVVQPGRSLRLSCAASGFTFSNYGMHWVRQAPGKGLEWVAVILYDGSNKYYPDSVKGRFTISRDNSKNTLYLQMNSLRAEDTAVYYCARGGSSWYPDSFDIWGQGTMVTVSSASTKGPSVFPLAPCSRSTSESTAALGCLVKDYFPEPVTVSWNSGALTSGVHTFPAVLQSSGLYSLSSVVTVPSSNFGTQTYTCNVDHKPSNTKVDKTVERKSCVECPPCPAPPVAGPSVFLFPPKPKDTLMISRTPEVTCVVVDVSHEDPEVKFNWYVDGVEVHNAKTKPREEQYNSTYRVVSVLTVLHQDWLNGKEYKCKVSNKALPSSIEKTISKAKGQPREPQVYTLPPSREEMTKNQVSLTCLVKGFYPSDIAVEWESNGQPENNYKTTPPVLDSDGSFFLYSKLTVDKSRWQQGNVFSCSVMHEALHNHYTQKSLSLSPG
light: not shown
modifications: N-terminal Gln 94% pyro-Q; 97% of heavy chains lack the C-terminal Lys
B5: CD73.11-IgG2-C219S (antibody)
heavy: QVQLVESGGGVVQPGRSLRLSCAASGFTFSNYGMHWVRQAPGKGLEWVAVIWYDESNKYYADSVKGRFTISRDNSKNTLFLQMNSLRAEDTAVYYCARGYNSRWYPDAFDIWGQGTMVTVSSASTKGPSVFPLAPCSRSTSESTAALGCLVKDYFPEPVTVSWNSGALTSGVHTFPAVLQSSGLYSLSSVVTVPSSNFGTQTYTCNVDHKPSNTKVDKTVERKSCVECPPCPAPPVAGPSVFLFPPKPKDTLMISRTPEVTCVVVDVSHEDPEVQFNWYVDGVEVHNAKTKPREEQFNSTFRVVSVLTVVHQDWLNGKEYKCKVSNKGLPAPIEKTISKTKGQPREPQVYTLPPSREEMTKNQVSLTCLVKGFYPSDIAVEWESNGQPENNYKTTPPMLDSDGSFFLYSKLTVDKSRWQQGNVFSCSVMHEALHNHYTQKSLSLSPG
light: not shown
notes: also called CD73.11-IgG2CS
B6: 5F8 (antibody, human IgG1, kappa, V domains shown)
VH: EVQLVESGGGLVQPGGSLRLSCAASGFTFSSYWMHWVRQAPGKGLVWVSRIISDGSSTGYADSVKGRFTISRDNAKNTLYLQMNSLRAEDTAVYYCAREFSSGWYFDYWGQGTLVTVSS
VL: AIQLTQSPSSLSASVGDRVTITCRASQGISSALAWYQQKPGKAPKLLIYDASSLESGVPSRFSGSGSGTDFTLTISSLQPEDFATYYCQQFSSYPRTFGQGTKVEIKR
B7: 4D4 (antibody, human IgG2, kappa)
heavy: QVQLVESGGGVVQPGRSLRLSCAASGFTFSNYGMHWVRQAPGKGLEWVAVIWYDESNKYYADSVKGRFTISRDNSKNTLFLQMNSLRAEDTAVYYCARGYNSRWYPDAFDIWGQGTMVTVSSASTKGPSVFPLAPCSRSTSESTAALGCLVKDYFPEPVTVSWNSGALTSGVHTFPAVLQSSGLYSLSSVVTVPSSNFGTQTYTCNVDHKPSNTKVDKTVERKCCVECPPCPAPPVAGPSVFLFPPKPKDTLMISRTPEVTCVVVDVSHEDPEVQFNWYVDGVEVHNAKTKPREEQFNSTFRVVSVLTVVHQDWLNGKEYKCKVSNKGLPAPIEKTISKTKGQPREPQVYTLPPSREEMTKNQVSLTCLVKGFYPSDIAVEWESNGQPENNYKTTPPMLDSDGSFFLYSKLTVDKSRWQQGNVFSCSVMHEALHNHYTQKSLSLSPGK
light: not shown
notes: IgG2; also called 4D4-1
B8: 11A6 (antibody, human IgG1, kappa, V domains shown)
VH: EVQLVESGGNLVQPGRSLRLSCAASGFTFDDYAMHWVRQAPGKGLEWVSGISWNNNDIGYADSVKGRFIISRDNAKNSLYLQMNSLRPEDTALYYCVKGYYVILTGLDYWGQGTPVTVSS
VL: DIQMTQSPSSLSASVGDRVTITCRASQGISSWLAWYQQKPEKAPKSLIYAASSLQSGVPSRFSGSGSGTDFTLTISSLQPEDFATYYCQQYNSYPLTFGGGTKVEIKR
B9: 4C3 (antibody, human IgG1, kappa, V domains shown)
VH: EVQLVESGGGLVQPGRSLRLSCAASGFTFDDYAMHWVRQAPGKGLEWVSGISWKSGSIGYADSVKGRFTISRDNAKNSLYLQMNSLRAEDTALYYCVKGYYVILTGLDYWGQGTLVTVSS
VL: not shown
notes: IgG1za; also called 4C3-1
B10: 10D2 (antibody, human IgG4, kappa, V domains shown)
VH: QVQLVESGGGVVQPGRSLRLSCAASGFTFSNYGLHWVRQAPGKGLEWVAVIRYDGSNKYYADSVKGRFTISRDNSKNTLYLQMSSLRAEDTAVYYCARGGSSWYPDGLDVWGQGTTVTVSS
VL: DIQMTQSPSSLSASVGDRVTITCRASQGISSWLAWYQQKPEKAPKSLIYAASSLQSGVPSRFSGSGSGTDFTLTISSLQPEDFATYYCQQYNSYPLTFGGGTKVEIKR
B11: 7A11 (antibody, human IgG1, kappa, V domains shown)
VH: EVQLVESGGGLVQTGRSLRLSCAASGFTFDDYAMHWVRQAPGKGLEWVSDISWNSDIIGYADSVKGRFTISRDNAKNSLYLQMNSLRAEDTALYYCAKDIYGSGSSFFDYWGQGILVTVSS
VL: DIQMTQSPSSLSASVGDRVTITCRASQYISSWLAWYQQKPEKAPKSLIYAASSLQSGVPSRFSGSGSGTDFTLTISSLQPEDFATYYCQQYHSYPPTFGQGTRLEIKR
B12: 24H2 (antibody, human IgG4, kappa, V domains shown)
VH: QVQLVESGGGVVQPGRSLRLSCAASGFTFSNYGMHWVRQAPGKGLEWVAVIWYDGGNKYYADSVKGRFTISRDNSKNTLFLQMNSLRAEDTAVYYCARGGSSWYPDAFDIWGQGTMVTVSS
VL: DIQMTQSPSSLSASVGDRVTITCRASQGISSWLAWYQQKPEKAPKSLIYAASSLQSGVPSRFSGSGSGTDFTLTISSLQPEDFATYYCQQYNSYPLTFGGGTKVEIKR

What was measured:
[1] = target: T1, N-hCD73-his (human, UniProt P21589 26-336); test: SPR
T1 construct: also called hCD73(26-336)His; CD73(26-336)His; not shown: His tag
T1 sequence: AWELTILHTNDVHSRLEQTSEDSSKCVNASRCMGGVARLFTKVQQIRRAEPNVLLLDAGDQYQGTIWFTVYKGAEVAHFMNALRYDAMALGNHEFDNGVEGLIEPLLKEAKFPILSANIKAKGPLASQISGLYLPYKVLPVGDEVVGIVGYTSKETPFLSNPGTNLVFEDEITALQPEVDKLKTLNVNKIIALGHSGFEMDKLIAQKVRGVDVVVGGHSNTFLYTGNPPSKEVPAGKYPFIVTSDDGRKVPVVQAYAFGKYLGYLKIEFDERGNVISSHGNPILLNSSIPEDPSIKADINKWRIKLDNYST
Text: One experimental format tested the binding of the N-terminal domain of hCD73 (consisting of residues 26-336 of human CD73; termed N-hCD73) to antibodies that were captured on immobilized protein A surfaces. For these experiments, protein A (Pierce) was immobilized to a density of 3000-4000 RU on flow cells 1-4 of a CM5 sensor chip (GE Healthcare) using standard ethyl(dimethylaminopropyl) carbodiimide (EDC)/N-hydroxysuccinimide (NHS) chemistry, with ethanolamine blocking, in a running buffer of 0.01 M HEPES pH 7.4, 0.15 M NaCl, 3 mM EDTA, 0.005% v/v tween 20. […] The running buffer for the kinetic experiments was 10 mM sodium phosphate, 130 mM sodium chloride, 0.05% tween 20, pH 7.1. The surfaces were regenerated after each cycle using two 30 s pulses of 10 mM glycine pH 1.5 at a flow rate of 30 μl/min. Sensogram data was double-referenced and then fitted to a 1:1 Langmuir model using Biacore T100 evaluation software v2.0.4, to determine the association rate constant (ka), the dissociation rate constant (kd), and the equilibrium dissociation constant (KD).

[2] = target: T2, human CD73 on cells (human, UniProt P21589 27-549); test: cell-based or functional assay
T2 sequence: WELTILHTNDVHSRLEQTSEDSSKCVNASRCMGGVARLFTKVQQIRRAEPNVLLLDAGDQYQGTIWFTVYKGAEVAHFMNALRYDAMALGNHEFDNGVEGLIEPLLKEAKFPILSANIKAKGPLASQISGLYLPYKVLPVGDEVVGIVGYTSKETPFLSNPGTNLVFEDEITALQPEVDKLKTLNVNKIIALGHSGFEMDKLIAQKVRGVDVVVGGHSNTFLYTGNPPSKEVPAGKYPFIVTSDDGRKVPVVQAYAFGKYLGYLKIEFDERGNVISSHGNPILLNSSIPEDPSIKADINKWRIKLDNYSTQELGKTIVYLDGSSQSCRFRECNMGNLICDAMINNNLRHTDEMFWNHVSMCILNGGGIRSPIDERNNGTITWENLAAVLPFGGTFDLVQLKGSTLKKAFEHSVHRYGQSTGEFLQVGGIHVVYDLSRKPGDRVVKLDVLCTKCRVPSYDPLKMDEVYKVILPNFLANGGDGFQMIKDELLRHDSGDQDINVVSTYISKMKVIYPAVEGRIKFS

[3] = target: T2, human CD73 on cells; test: cell-based or functional assay; remark: listed apart in the source

| Binder | Kd [1] [nM] | Ymax, CD73 internalization (100 nM 11F11 set to 100%) [2] [%] | Ymax, cAMP HTRF assay (100 nM 11F11 set to 100%) [3] [%] |
| --- | --- | --- | --- |
| B1 | 1.1 |  |  |
| B2 | ~5 | 99 |  |
| B3 |  | 99 |  |
| B4 |  | 97 |  |
| B5 | ~5 |  |  |
| B6 |  |  | 80 |
| B7 | ~5 | 104 |  |
| B8 |  |  | 84 |
| B9 | 100 to 200 |  | 80 |
| B10 |  | 29 |  |
| B11 |  | 50 | 45 |
| B12 |  | 51 |  |
